Earlier results as cited in paper PMC10636758.

Legend:
HP1α (Homo sapiens) = HP1α (Homo sapiens) (UniProt P45973)
[1] = target: Histone H3 peptide (Homo sapiens)

| Substance | Kd (HP1α (Homo sapiens)) [µM] | Kd [1] [µM] |
| --- | --- | --- |
| HP1α (from UniProt P45973) | < 1 | – |
| HP1α CSD (from UniProt P45973) | – | 58 |
